# In the supplement of paper PMC7877785:
# ± gives the uncertainty stated by the source.
# Assay: self-splicing fitness, log relative to wild type (ln ratio); higher = more splicing; Tetrahymena group I intron in knt gene, E. coli kanamycin selection, DiMSum; sequences stand for … in CUCUCU…GGAGGGAAAAGUUAUCAGGCAUGCACCUGGUAGCUAGUCUUUAAACCAAUAGAUUGCAUCGGUUUAAAAGGCAAGACCGUCAAAUUGCGGGAAAGGGGUCAACAGCCGUUCAGUACCAAGUCUCAGGGGAAACUUUGAGAUGGCCUUGCAAAGGGUAUGGUAAUAAGCUGACGGACAUGGUCCUAACCACGCAGCCAAGUCCUAAGUCAACAGAUCUUCUGUUGAUAUGGAUGCAGUUCACAGACUAAAUGUCGGUCGGGGAAGAUGUAUUCUUCUCAUAAGAUAUAGUCGGACCUCUCCUUAAUGGGAGCUAGCGGAUGAAGUGAUGCAACACUGGAGCCGCUGGGAACUAAUUUGUAUGCGAAAGUAUAUUGAUUAGUUUUGGAGUACUCGUGGUCG
# In short: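 A randomised library covering all eight P1ex-region intron nucleotides was built with the intron in the knt kanamycin-resistance gene on pET-22b(+) and held in E. coli BL21(DE3). Cells were grown overnight at 37°C or 30°C on LB agar, with or without 25 μg/mL kanamycin, plus 100 μg/mL carbenicillin, 50 μM IPTG and 0.2% rhamnose, and pooled colonies were amplicon-sequenced on an Illumina HiSeq 2500. DiMSum fitness is the error-weighted combination of wild-type-normalised replicate fold changes, kanamycin versus none.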
Sequence,self-splicing fitness (ln) (30 °C),self-splicing fitness (ln) (37 °C)
GUUGAGCAAUAUUACGAGCA,-2.68 ± 0.28,-1.71 ± 0.32
GUUGAGCAAUAUUACGAGCG,–,-1.37 ± 0.25
GUUGAGCAAUAUUACGAGGG,-2.7 ± 0.21,-2.67 ± 0.24
GUUGAGCAAUAUUACGAGUU,–,-2.56 ± 0.33
GUUGAGCAAUAUUACGAUUU,-1.2 ± 0.12,-1.64 ± 0.16
GUUGAGCAAUAUUACGCACA,-1.83 ± 0.14,-0.945 ± 0.15
GUUGAGCAAUAUUACGCAGA,-2.67 ± 0.34,-3.6 ± 0.46
GUUGAGCAAUAUUACGCAGC,-2.23 ± 0.35,–
GUUGAGCAAUAUUACGCCGA,-2.15 ± 0.41,–
GUUGAGCAAUAUUACGCGAU,-3.79 ± 0.3,-2.47 ± 0.34
GUUGAGCAAUAUUACGCUUU,-3.95 ± 0.48,-2.45 ± 0.26
GUUGAGCAAUAUUACGGACA,-0.932 ± 0.47,-1.32 ± 0.43
GUUGAGCAAUAUUACGGCUG,-1.41 ± 0.11,-0.467 ± 0.14
GUUGAGCAAUAUUACGGGAU,-3.14 ± 0.15,-1.96 ± 0.15
GUUGAGCAAUAUUACGGUGC,-2.79 ± 0.3,-2.39 ± 0.44
GUUGAGCAAUAUUACGUACG,-2.57 ± 0.39,-2.31 ± 0.45
GUUGAGCAAUAUUACGUACU,-2.91 ± 0.25,-2.15 ± 0.2
GUUGAGCAAUAUUACGUCUC,–,-0.823 ± 0.46
GUUGAGCAAUAUUACGUGAC,-2.31 ± 0.24,-2.48 ± 0.31
GUUGAGCAAUAUUACGUGCA,-1.65 ± 0.45,-0.908 ± 0.28
GUUGAGCAAUAUUACGUGGA,-1.2 ± 0.37,-2.45 ± 0.34
GUUGAGCAAUAUUACGUUUA,-3.32 ± 0.28,-2.33 ± 0.31
GUUUAGCAAUAUUACGAACA,-2.02 ± 0.39,-1.24 ± 0.26
GUUUAGCAAUAUUACGACCC,-0.68 ± 0.19,-0.133 ± 0.24
GUUUAGCAAUAUUACGAGAG,-3.02 ± 0.17,-2 ± 0.14

Sequence,self-splicing fitness (ln) (30 °C),self-splicing fitness (ln) (37 °C)
GUUUAGCAAUAUUACGCAGG,-1.36 ± 0.2,-2.04 ± 0.34
GUUUAGCAAUAUUACGCGCC,-3.31 ± 0.43,-2.51 ± 0.44
GUUUAGCAAUAUUACGCGUG,-1.1 ± 0.071,-0.806 ± 0.082
GUUUAGCAAUAUUACGCUAG,-2.38 ± 0.16,-0.42 ± 0.13
GUUUAGCAAUAUUACGGAAG,-2.59 ± 0.23,-0.848 ± 0.22
GUUUAGCAAUAUUACGGCGG,-3.27 ± 0.44,–
GUUUAGCAAUAUUACGGGUU,–,-2.92 ± 0.35
GUUUAGCAAUAUUACGGUGC,-1.02 ± 0.32,0.233 ± 0.44
GUUUAGCAAUAUUACGUACG,-2.01 ± 0.14,-0.33 ± 0.17
GUUUAGCAAUAUUACGUUAG,-2.24 ± 0.21,-0.81 ± 0.18
GUUUAGCAAUAUUACGUUUU,-2.72 ± 0.14,-1.65 ± 0.18
UAAAAGCAAUAUUACGAAAC,-2.8 ± 0.19,-3.3 ± 0.43
UAAAAGCAAUAUUACGAAUC,-4.16 ± 0.42,-2.13 ± 0.21
UAAAAGCAAUAUUACGAGGA,-2.79 ± 0.17,-1.54 ± 0.14
UAAAAGCAAUAUUACGAGUA,-1.26 ± 0.068,-0.418 ± 0.082
UAAAAGCAAUAUUACGAUUC,-2.85 ± 0.17,-1.02 ± 0.2
UAAAAGCAAUAUUACGCAUU,-3.33 ± 0.19,-2.15 ± 0.19
UAAAAGCAAUAUUACGCCAC,–,-2.02 ± 0.36
UAAAAGCAAUAUUACGCCCA,-0.0418 ± 0.15,0.358 ± 0.19
UAAAAGCAAUAUUACGCGCC,-1.76 ± 0.2,-0.751 ± 0.24
UAAAAGCAAUAUUACGGAAA,-2.5 ± 0.23,-1.72 ± 0.15
UAAAAGCAAUAUUACGGCAA,-0.166 ± 0.1,-0.176 ± 0.1
UAAAAGCAAUAUUACGUAAG,-1.01 ± 0.079,-0.764 ± 0.11
UAAAAGCAAUAUUACGUACU,-0.876 ± 0.073,-0.401 ± 0.092
UAAAAGCAAUAUUACGUCCG,-0.59 ± 0.082,0.205 ± 0.1

Sequence,self-splicing fitness (ln) (30 °C),self-splicing fitness (ln) (37 °C)
UAAAAGCAAUAUUACGUUCA,-0.437 ± 0.083,-0.259 ± 0.091
UAAAAGCAAUAUUACGUUGC,-3.72 ± 0.27,-3.17 ± 0.4
UAAAAGCAAUAUUACGUUUG,-2.22 ± 0.1,-0.909 ± 0.11
UAACAGCAAUAUUACGAAGC,-3.19 ± 0.19,-2.3 ± 0.27
UAACAGCAAUAUUACGAAUC,-2.67 ± 0.18,-2.66 ± 0.29
UAACAGCAAUAUUACGACUC,-0.882 ± 0.084,-0.517 ± 0.11
UAACAGCAAUAUUACGAGAU,-4.15 ± 0.33,-2.9 ± 0.2
UAACAGCAAUAUUACGAGUC,-3.74 ± 0.23,-2.05 ± 0.22
UAACAGCAAUAUUACGAUAA,-1.1 ± 0.076,-0.209 ± 0.08
UAACAGCAAUAUUACGAUCU,-1.04 ± 0.073,0.151 ± 0.099
UAACAGCAAUAUUACGCAGG,-2.5 ± 0.09,-0.402 ± 0.08
UAACAGCAAUAUUACGCGCC,-1.47 ± 0.1,-0.587 ± 0.13
UAACAGCAAUAUUACGCUAA,-1.93 ± 0.13,-1.25 ± 0.12
UAACAGCAAUAUUACGCUGU,-3.79 ± 0.16,-2.62 ± 0.19
UAACAGCAAUAUUACGGCAC,-2.47 ± 0.13,-1.63 ± 0.14
UAACAGCAAUAUUACGGUAA,-2.07 ± 0.095,-1.22 ± 0.081
UAACAGCAAUAUUACGUAAA,-2.6 ± 0.089,-0.884 ± 0.084
UAACAGCAAUAUUACGUAUC,-3.56 ± 0.19,-2.43 ± 0.15
UAACAGCAAUAUUACGUAUG,-1.52 ± 0.058,-0.164 ± 0.075
UAACAGCAAUAUUACGUCCU,-0.956 ± 0.085,-0.192 ± 0.1
UAACAGCAAUAUUACGUCUA,-0.13 ± 0.049,0.144 ± 0.06
UAACAGCAAUAUUACGUCUU,-1.12 ± 0.052,-0.0714 ± 0.06
UAACAGCAAUAUUACGUGUA,-1.6 ± 0.056,-0.0928 ± 0.06
UAACAGCAAUAUUACGUUUG,-2.13 ± 0.079,-0.759 ± 0.081
UAAGAGCAAUAUUACGAACG,–,-2.57 ± 0.41

Sequence,self-splicing fitness (ln) (30 °C),self-splicing fitness (ln) (37 °C)
UAAGAGCAAUAUUACGAAGG,-4.21 ± 0.34,-1.81 ± 0.2
UAAGAGCAAUAUUACGAAUA,-3.27 ± 0.26,-1.32 ± 0.19
UAAGAGCAAUAUUACGACAU,-3.866 ± 0.031,-2.82 ± 0.043
UAAGAGCAAUAUUACGAGGG,-3.64 ± 0.14,-2.53 ± 0.16
UAAGAGCAAUAUUACGAUAU,-3.22 ± 0.24,-2.86 ± 0.28
UAAGAGCAAUAUUACGCAAG,-3.12 ± 0.44,-1.51 ± 0.45
UAAGAGCAAUAUUACGCGCU,-3.17 ± 0.28,-3.35 ± 0.39
UAAGAGCAAUAUUACGCGUA,-1.55 ± 0.29,0.00439 ± 0.15
UAAGAGCAAUAUUACGCUAG,-3.86 ± 0.26,-1.94 ± 0.21
UAAGAGCAAUAUUACGCUAU,-3.95 ± 0.32,-2.64 ± 0.24
UAAGAGCAAUAUUACGGAUU,–,-2.13 ± 0.48
UAAGAGCAAUAUUACGGGAA,-2.21 ± 0.3,-1.77 ± 0.24
UAAGAGCAAUAUUACGGGUA,-2.57 ± 0.2,-1.59 ± 0.17
UAAGAGCAAUAUUACGGUAA,-2.55 ± 0.21,-3.19 ± 0.28
UAAGAGCAAUAUUACGGUUA,-1.12 ± 0.12,-0.602 ± 0.1
UAAGAGCAAUAUUACGUAAC,-5.23 ± 0.45,-1.44 ± 0.18
UAAGAGCAAUAUUACGUCAA,-3.41 ± 0.25,-2.36 ± 0.18
UAAGAGCAAUAUUACGUCUC,-4.3 ± 0.34,-2.31 ± 0.21
UAAGAGCAAUAUUACGUGAA,-1.72 ± 0.17,-1.74 ± 0.29
UAAGAGCAAUAUUACGUGAG,-1.37 ± 0.13,-0.181 ± 0.23
UAAGAGCAAUAUUACGUGGU,-3.74 ± 0.24,-2.57 ± 0.19
UAAGAGCAAUAUUACGUUAC,–,-2.7 ± 0.34
UAAGAGCAAUAUUACGUUUC,-3.76 ± 0.26,-2.51 ± 0.39
